Experimental data as given in PMC10349104.
Several values for one entry are separate records, joined by “and”; a condition that tells them apart may be missing. Equal entries are not always repeated.

Columns and labels:
Test in all cases: SPR
[1] = molecular target: EVA-A(1-98) (A. americanum)
[2] = molecular target: EVA-A(21-102) (A. americanum)
[3] = molecular target: EVA-A(C8) (A. americanum)
[4] = molecular target: EVA-A(C8) (Amblyomma americanum)
[5] = molecular target: EVA-A(DC) (Amblyomma americanum)
[6] = molecular target: EVA-A(DN) (Amblyomma americanum)
[7] = molecular target: EVA-A(L39P) (A. americanum)
[8] = molecular target: EVA-A(L39P) (Amblyomma americanum)
[9] = molecular target: EVA-A(Y44A) (A. americanum)
[10] = molecular target: EVA-A(Y44A) (Amblyomma americanum)

Sequence of CCL11 (P51671 24-97): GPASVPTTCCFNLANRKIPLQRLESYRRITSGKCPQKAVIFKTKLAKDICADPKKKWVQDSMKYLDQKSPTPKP
Sequence of CCL17 (Q92583 24-94): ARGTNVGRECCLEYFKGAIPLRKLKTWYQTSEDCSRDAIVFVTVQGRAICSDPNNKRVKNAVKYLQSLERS
Sequence of CCL4 (P13236 24-92): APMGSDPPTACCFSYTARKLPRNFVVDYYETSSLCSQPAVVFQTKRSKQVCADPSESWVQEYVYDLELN
Sequence of CCL18 (P55774 21-89): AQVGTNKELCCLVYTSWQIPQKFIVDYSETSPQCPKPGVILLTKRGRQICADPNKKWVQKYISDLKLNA
Sequence of CCL13 (Q99616 17-98): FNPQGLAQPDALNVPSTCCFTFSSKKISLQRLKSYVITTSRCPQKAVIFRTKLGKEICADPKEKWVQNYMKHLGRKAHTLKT
Sequence of CCL22 (O00626 25-93): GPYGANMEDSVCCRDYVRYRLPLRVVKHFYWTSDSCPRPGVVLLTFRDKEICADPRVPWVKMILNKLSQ
Sequence of CCL5 (P13501 24-91): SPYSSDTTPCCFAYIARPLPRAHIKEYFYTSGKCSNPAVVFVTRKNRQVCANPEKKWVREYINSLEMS
Sequence of CCL19 (Q99731 22-98): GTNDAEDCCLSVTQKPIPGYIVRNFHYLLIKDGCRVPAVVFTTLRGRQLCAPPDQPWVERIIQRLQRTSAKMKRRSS
Sequence of CCL3 (P10147 24-92): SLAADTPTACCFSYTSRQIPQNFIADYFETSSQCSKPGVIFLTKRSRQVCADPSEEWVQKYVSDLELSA

Substance | Kd [1] [nM] | koff [1] [s⁻¹] | kon [1] [M⁻¹ s⁻¹] | Kd [2] [nM] | koff [2] [s⁻¹] | kon [2] [M⁻¹ s⁻¹] | Kd [3] [nM] | Kd [4] | Kd [5] | Kd [6] | koff [6] | kon [6] | Kd [7] [nM] | koff [7] [s⁻¹] | kon [7] [M⁻¹ s⁻¹] | Kd [8] | kon [8] | Kd [9] [nM] | koff [9] [s⁻¹] | Kd [10] | further results
CCL3 (from UniProt P10147 24-92) (ligand) | 1.77 | 0.00058 | 345000 | 3.23 | 0.00144 | 449000 | 40.3 | 36.6 nM and 43.3 nM and 41.1 nM | 1.67 nM and 1.95 nM and 1.68 nM | 2.89 nM and 3.24 nM and 3.57 nM | 0.00144 s⁻¹ and 0.00146 s⁻¹ and 0.00142 s⁻¹ | 498000 M⁻¹ s⁻¹ and 452000 M⁻¹ s⁻¹ and 397000 M⁻¹ s⁻¹ | 0.32 | 0.0004 | 1.22e+06 | 0.356 nM and 0.205 nM and 0.394 nM | 831000 M⁻¹ s⁻¹ and 1.78e+06 M⁻¹ s⁻¹ and 1.05e+06 M⁻¹ s⁻¹ | 0.95 | 0.00044 | 1.2 nM and 0.464 nM | koff [3]: 0.0464 s⁻¹; kon [3]: 1.08e+06 M⁻¹ s⁻¹; koff [5]: 0.000578 s⁻¹ and 0.000636 s⁻¹ and 0.00061 s⁻¹; kon [5]: 345000 M⁻¹ s⁻¹ and 326000 M⁻¹ s⁻¹ and 363000 M⁻¹ s⁻¹; koff [8]: 0.000296 s⁻¹ and 0.000365 s⁻¹ and 0.000413 s⁻¹; kon [9]: 566000 M⁻¹ s⁻¹; koff [10]: 0.000428 s⁻¹ and 0.000445 s⁻¹ and 0.000452 s⁻¹; kon [10]: 357000 M⁻¹ s⁻¹ and 369000 M⁻¹ s⁻¹ and 973000 M⁻¹ s⁻¹
CCL4 (from UniProt P13236 24-92) (ligand) | 8.56 | 0.00087 | 165000 | 4.95 | 0.00218 | 461000 | 71.3 | 70.8 nM and 65.2 nM and 78.1 nM | 4.06 nM and 17.6 nM and 4.03 nM | 4.26 nM and 4.21 nM and 6.38 nM | 0.00229 s⁻¹ and 0.00217 s⁻¹ and 0.00209 s⁻¹ | 538000 M⁻¹ s⁻¹ and 516000 M⁻¹ s⁻¹ and 328000 M⁻¹ s⁻¹ | 0.3 | 0.00023 | 805000 | 0.291 nM and 0.278 nM and 0.333 nM | 724000 M⁻¹ s⁻¹ and 801000 M⁻¹ s⁻¹ and 890000 M⁻¹ s⁻¹ | 0.66 | 0.0002 | 0.753 nM and 0.7 nM and 0.513 nM | koff [3]: 0.0215 s⁻¹; kon [3]: 293000 M⁻¹ s⁻¹; koff [4]: 0.0133 s⁻¹ and 0.0132 s⁻¹ and 0.0382 s⁻¹; kon [4]: 188000 M⁻¹ s⁻¹ and 202000 M⁻¹ s⁻¹ and 489000 M⁻¹ s⁻¹; koff [5]: 0.000873 s⁻¹ and 0.000943 s⁻¹ and 0.00091 s⁻¹; koff [8]: 0.000211 s⁻¹ and 0.000223 s⁻¹ and 0.000297 s⁻¹; kon [9]: 319000 M⁻¹ s⁻¹; koff [10]: 0.000169 s⁻¹ and 0.000191 s⁻¹ and 0.000236 s⁻¹; kon [10]: 224000 M⁻¹ s⁻¹ and 273000 M⁻¹ s⁻¹ and 460000 M⁻¹ s⁻¹
CCL5 (from UniProt P13501 24-91) (ligand) | 1.03 | 0.00033 | 354000 | 2.52 | 0.00195 | 777000 | 16 | 15.9 nM and 16.3 nM and 16 nM | 0.973 nM and 1.11 nM and 1 nM | 2.42 nM (2×) and 2.72 nM | 0.00208 s⁻¹ and 0.00189 s⁻¹ and 0.00187 s⁻¹ | 860000 M⁻¹ s⁻¹ and 783000 M⁻¹ s⁻¹ and 688000 M⁻¹ s⁻¹ | < 0.1 | < 0.0001 | 1.53e+06 | 0.0849 nM and 0.0557 nM and 0.0372 nM | 1.12e+06 M⁻¹ s⁻¹ and 1.98e+06 M⁻¹ s⁻¹ and 1.48e+06 M⁻¹ s⁻¹ | 0.23 | 0.00021 | 0.145 nM and 0.294 nM and 0.251 nM | koff [3]: 0.0115 s⁻¹; kon [3]: 716000 M⁻¹ s⁻¹; koff [4]: 0.0113 s⁻¹ and 0.012 s⁻¹ and 0.0111 s⁻¹; kon [4]: 712000 M⁻¹ s⁻¹ and 738000 M⁻¹ s⁻¹ and 697000 M⁻¹ s⁻¹; koff [5]: 0.000331 s⁻¹ and 0.000413 s⁻¹ and 0.00035 s⁻¹; kon [5]: 340000 M⁻¹ s⁻¹ and 372000 M⁻¹ s⁻¹ and 348000 M⁻¹ s⁻¹; koff [8]: 9.49e-05 s⁻¹ and 0.000111 s⁻¹ and 5.52e-05 s⁻¹; kon [9]: 981000 M⁻¹ s⁻¹; koff [10]: 0.000189 s⁻¹ and 0.000193 s⁻¹ and 0.000245 s⁻¹; kon [10]: 1.31e+06 M⁻¹ s⁻¹ and 658000 M⁻¹ s⁻¹ and 976000 M⁻¹ s⁻¹
CCL11 (from UniProt P51671 24-97) (ligand) | 487 | 0.0537 | 101000 | 507 | 0.218 | 454000 | 663 | 842 nM and 836 nM and 312 nM | 481 nM and 474 nM and 507 nM | 750 nM and 383 nM and 390 nM | 0.264 s⁻¹ and 0.203 s⁻¹ and 0.187 s⁻¹ | 352000 M⁻¹ s⁻¹ and 531000 M⁻¹ s⁻¹ and 480000 M⁻¹ s⁻¹ | 3.32 | 0.00372 | 1.4e+06 | 3.46 nM and 2.95 nM and 3.55 nM | 1.2e+06 1/(M s) and 1.5e+06 1/(M s) (2×) | 1.73 | 0.0015 | 1.67 nM and 1.9 nM and 1.61 nM | koff [3]: 0.196 s⁻¹; kon [3]: 236000 M⁻¹ s⁻¹; koff [5]: 0.0537 s⁻¹ and 0.0345 s⁻¹ and 0.0604 s⁻¹; kon [5]: 112000 M⁻¹ s⁻¹ and 72900 M⁻¹ s⁻¹ and 119000 M⁻¹ s⁻¹; koff [8]: 0.00417 s⁻¹ and 0.00433 s⁻¹ and 0.00541 s⁻¹; kon [9]: 877000 M⁻¹ s⁻¹; koff [10]: 0.00144 s⁻¹ and 0.00137 s⁻¹ and 0.00169 s⁻¹; kon [10]: 862000 M⁻¹ s⁻¹ and 719000 M⁻¹ s⁻¹ and 1.05e+06 M⁻¹ s⁻¹
CCL13 (from UniProt Q99616 17-98) (ligand) | 1.42 | 0.00063 | 458000 | 0.3 | 0.00087 | 2.94e+06 | 2.91 | 2.74 nM and 3.26 nM | 1.4 nM (2×) and 1.45 nM | 0.298 nM and 0.304 nM and 0.285 nM | 0.000931 s⁻¹ and 0.000845 s⁻¹ and 0.000833 s⁻¹ | 3.12e+06 M⁻¹ s⁻¹ and 2.78e+06 M⁻¹ s⁻¹ and 2.92e+06 M⁻¹ s⁻¹ | < 0.1 | < 0.0001 | 3.26e+06 | 0.0116 nM and 0.0158 nM and 0.035 nM | 2.5e+06 M⁻¹ s⁻¹ and 4.09e+06 M⁻¹ s⁻¹ and 3.18e+06 M⁻¹ s⁻¹ | < 0.1 | < 0.0001 | 0.0154 nM and 0.0339 nM and 0.0439 nM | koff [3]: 0.00423 s⁻¹; kon [3]: 1.47e+06 M⁻¹ s⁻¹; koff [4]: 0.00454 s⁻¹ and 0.00359 s⁻¹; kon [4]: 1.66e+06 M⁻¹ s⁻¹ and 1.1e+06 M⁻¹ s⁻¹; koff [5]: 0.000625 s⁻¹ and 0.000669 s⁻¹ and 0.000651 s⁻¹; kon [5]: 448000 M⁻¹ s⁻¹ and 461000 M⁻¹ s⁻¹ and 466000 M⁻¹ s⁻¹; kon [9]: 2.68e+06 M⁻¹ s⁻¹; koff [10]: 5.53e-05 s⁻¹ and 6.98e-05 s⁻¹ and 0.000105 s⁻¹; kon [10]: 3.58e+06 M⁻¹ s⁻¹ and 2.06e+06 M⁻¹ s⁻¹ and 2.4e+06 M⁻¹ s⁻¹
CCL17 (from UniProt Q92583 24-94) (ligand) | < 0.1 | – | – | 1.04 | – | – | 97.1 | 77 nM and 67.5 nM and 147 nM | – | 1.06 nM and 1.05 nM and 1.01 nM | – | – | 7.49 | – | – | 3.31 nM and 3.25 nM and 15.9 nM | – | 61.9 | – | 65.8 nM and 104 nM and 15.8 nM | –
CCL18 (from UniProt P55774 21-89) (ligand) | < 0.1 | < 0.0001 | 443000 | < 0.1 | < 0.0001 | 1.59e+06 | < 0.1 | 0.0591 nM and 0.0302 nM and 0.0473 nM | 0.00073 nM and 0.00413 nM and 0.00277 nM | 0.000563 nM and 0.000228 nM and 0.000552 nM | 1.04e-06 s⁻¹ and 4.52e-07 s⁻¹ and 5.08e-07 s⁻¹ | 1.86e+06 M⁻¹ s⁻¹ and 1.98e+06 M⁻¹ s⁻¹ and 921000 M⁻¹ s⁻¹ | < 0.1 | < 0.0001 | 3.74e+06 | 0.00439 nM and 0.00871 nM and 0.0273 nM | 3.31e+06 M⁻¹ s⁻¹ and 3.54e+06 M⁻¹ s⁻¹ and 4.37e+06 M⁻¹ s⁻¹ | < 0.1 | < 0.0001 | 0.0553 nM and 0.0303 nM and 0.0163 nM | koff [3]: < 0.0001 s⁻¹; kon [3]: 837000 M⁻¹ s⁻¹; koff [4]: 5.57e-05 s⁻¹ and 2.29e-05 s⁻¹ and 3.83e-05 s⁻¹; kon [4]: 943000 M⁻¹ s⁻¹ and 758000 M⁻¹ s⁻¹ and 810000 M⁻¹ s⁻¹; kon [5]: 496000 M⁻¹ s⁻¹ and 427000 M⁻¹ s⁻¹ and 406000 M⁻¹ s⁻¹; kon [9]: 1.69e+06 M⁻¹ s⁻¹; koff [10]: 7.08e-05 s⁻¹ and 5.3e-05 s⁻¹ and 3.33e-05 s⁻¹; kon [10]: 1.28e+06 M⁻¹ s⁻¹ and 1.75e+06 M⁻¹ s⁻¹ and 2.05e+06 M⁻¹ s⁻¹
CCL19 (from UniProt Q99731 22-98) (ligand) | 0.16 | 3e-05 | 144000 | 1.58 | 0.00053 | 342000 | 16.1 | 13.2 nM and 15.6 nM and 19.7 nM | 0.209 nM and 0.0874 nM and 0.187 nM | 1.34 nM and 1.49 nM and 1.92 nM | 0.000471 s⁻¹ and 0.000557 s⁻¹ and 0.000576 s⁻¹ | 352000 M⁻¹ s⁻¹ and 373000 M⁻¹ s⁻¹ and 301000 M⁻¹ s⁻¹ | 1.34 | 0.00036 | 278000 | 1.4 nM and 1 nM and 1.62 nM | 233000 M⁻¹ s⁻¹ and 348000 M⁻¹ s⁻¹ and 252000 M⁻¹ s⁻¹ | 0.75 | 0.00036 | 0.676 nM and 0.642 nM and 0.935 nM | koff [3]: 0.00345 s⁻¹; kon [3]: 245000 M⁻¹ s⁻¹; koff [5]: 3.17e-05 s⁻¹ and 1.17e-05 s⁻¹ and 2.75e-05 s⁻¹; kon [5]: 151000 M⁻¹ s⁻¹ and 134000 M⁻¹ s⁻¹ and 147000 M⁻¹ s⁻¹; koff [8]: 0.000327 s⁻¹ and 0.000349 s⁻¹ and 0.000407 s⁻¹; kon [9]: 490000 M⁻¹ s⁻¹; koff [10]: 0.000322 s⁻¹ and 0.000363 s⁻¹ and 0.000401 s⁻¹; kon [10]: 477000 M⁻¹ s⁻¹ and 566000 M⁻¹ s⁻¹ and 428000 M⁻¹ s⁻¹
CCL22 (from UniProt O00626 25-93) (ligand) | 125 | 0.00084 | 29000 | 61.6 | 0.00161 | 26000 | – | – | 125 nM | 64.9 nM and 73.9 nM and 46 nM | 0.00186 s⁻¹ and 0.00173 s⁻¹ and 0.00125 s⁻¹ | 28700 M⁻¹ s⁻¹ and 23400 M⁻¹ s⁻¹ and 27200 M⁻¹ s⁻¹ | 1.46 | 0.00292 | 1.03e+06 | 1.64 nM and 1.17 nM and 1.57 nM | 763000 M⁻¹ s⁻¹ and 1.28e+06 M⁻¹ s⁻¹ and 1.05e+06 M⁻¹ s⁻¹ | 11.2 | 0.00818 | 6.2 nM and 14.4 nM and 13.1 nM | kon [5]: 37600 M⁻¹ s⁻¹ and 12800 M⁻¹ s⁻¹; koff [8]: 0.00125 s⁻¹ and 0.00151 s⁻¹ and 0.00165 s⁻¹; kon [9]: 766000 M⁻¹ s⁻¹; koff [10]: 0.0056 s⁻¹ and 0.00713 s⁻¹ and 0.0118 s⁻¹; kon [10]: 903000 M⁻¹ s⁻¹ and 496000 M⁻¹ s⁻¹ and 899000 M⁻¹ s⁻¹
